The record followed here is patent US20220380471A1 (US Dept. of Health and Human Services, published 2022).

Assay [1] has as its target T1, recombinant human B7H3-Fc protein (human, UniProt Q5ZPR3 29-466, limits assumed).
T1 construct: 154 kDa non-reduced, 77 kDa reduced; also called hB7H3-Fc; not shown: Fc part
T1 sequence (looked up): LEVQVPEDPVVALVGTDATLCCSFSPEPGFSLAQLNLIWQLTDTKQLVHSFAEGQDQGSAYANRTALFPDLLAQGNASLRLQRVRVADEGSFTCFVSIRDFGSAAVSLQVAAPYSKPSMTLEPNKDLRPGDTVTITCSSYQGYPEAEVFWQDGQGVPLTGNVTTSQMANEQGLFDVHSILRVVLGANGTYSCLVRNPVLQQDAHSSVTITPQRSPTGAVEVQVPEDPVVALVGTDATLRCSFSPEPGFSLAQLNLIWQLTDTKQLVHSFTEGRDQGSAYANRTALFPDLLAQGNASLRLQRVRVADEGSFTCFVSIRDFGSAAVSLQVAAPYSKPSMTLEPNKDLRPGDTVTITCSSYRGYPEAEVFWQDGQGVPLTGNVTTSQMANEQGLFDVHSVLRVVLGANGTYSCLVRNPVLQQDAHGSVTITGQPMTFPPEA
Description: BLI (Octet), human B7H3-Fc; same value printed for 660, 528, 264, 198, 66 and 33 nM. As for the experimental part:
FIG. 13: Kinetics of RWG4 on human B7H3-Fc. The association/dissociation properties of RWG4 were measured on the Octet system (Creative Biolabs) using recombinant human B7H3-Fc protein.
(§1) The association/dissociation properties of RWC4 and RWG4 were measured on the Octet system (Creative Biolabs) using either recombinant human B7H3-Fc protein or recombinant mouse B7H3-His protein.
On the technique in general: BLI is a label-free optical method that tracks binding on a fibre tip over time.

For the next assay, the target named is T2, mouse B7H3-His (mouse, UniProt Q8VE98 29-244, limits assumed).
T2 construct: also called recombinant mouse B7H3-His protein; not shown: His tag
T2 sequence (looked up): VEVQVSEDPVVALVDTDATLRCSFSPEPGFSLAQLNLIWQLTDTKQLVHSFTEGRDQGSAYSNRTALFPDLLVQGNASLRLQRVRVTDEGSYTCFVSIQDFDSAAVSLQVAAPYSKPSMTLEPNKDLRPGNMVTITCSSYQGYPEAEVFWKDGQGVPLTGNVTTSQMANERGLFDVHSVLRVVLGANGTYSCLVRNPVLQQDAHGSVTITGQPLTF
Kind of assay: phage ELISA, cross-species. The gist of the method:
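Camel VHH phage from libraries of eight individual camels went through 3 rounds of panning on recombinant B7H3-Fc protein. The recorded ELISA signal reflects binding of the selected phage to immobilised human or other-species B7H3, or to control proteins, in a phage ELISA.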
For orientation: An ELISA detects its analyte on a solid surface through an enzyme-linked reagent.

Assay [2] concerns the target T1, recombinant human B7H3-Fc protein. Description: BLI (Octet), human B7H3-Fc; same value printed for 660, 132 and 26.4 nM. As for the experimental part: FIG. 12: Kinetics of RWC4 on human B7H3-Fc. The association/dissociation properties of RWC4 were measured on the Octet system (Creative Biolabs) using recombinant human B7H3-Fc protein.
as §1

B1: RWG4 (VHH)
VHH: QVQLVQSGGGLVQPGGSLRLSCAASGFTFSVYWFYWVRQAPRQGLEWVSTIASNGSTYYSDSVKGRFTISRDNAKNTVYLQMNSLKPEDTAVYYCVSDPDYYSDYERAYKFWAQGTQVTVSS
notes: Camel VHH; tag not described; also called camel antibody RWG4
On to B1, for which, in assay [1], the Kd (commonly the equilibrium constant for the complex coming apart) stood at 6.94 nM; the koff – broadly, the first-order rate constant of dissociation – turned out to be 6.34e-05 s⁻¹; the kon (in general, the rate constant with which the complex forms) was 9130 M⁻¹ s⁻¹. The ELISA signal with mouse B7H3-His stood at 0.0665.

B2: RWG8 (VHH)
VHH: DVQLVESGGGLVQPGGSLRLSCAASGFTFSRYWMGWFRQAPGKGVEWVSTINSGGGSTYYADSVKGRFTISRDNAKNTLYLQLNNLKTEDTAMYYCAKEQWRTGSRGQGTQVTVSS
notes: Camel VHH; tag not described; also called camel antibody RWG8
In turn, B2 displayed an ELISA signal with mouse B7H3-His of 2.47.

B3: RWC4 (VHH)
VHH: EVQLVESGGGSVQAGGSLRLSCVASEDSTSAMCMGWFRQAPGKEREGVACINPTGEVTWYGDSVKGRFTISRDTVKKIVYLQMNSLKPEDTAMYYCAARVTYGGDWSTDTDYEYWGQGTQVTVSS
notes: Camel VHH; tag not described; also called camel antibody RWC4
B3: in assay [2], the Kd was 3.8 nM, the koff amounted to 0.000101 s⁻¹ and the kon was found to be 26500 M⁻¹ s⁻¹.
